Measurements reported in publication doi:10.1101/2022.01.25.477770 (bioRxiv, 2022).

Legend:
Assay in all cases: ELISA
Settings in all cases: both partners purified
[1] = target: T1, MERS-CoV prefusion-stabilized spike (S2P) (MERS-CoV EMC/2012 (GenBank AFS88936), UniProt K0BRG7, stabilised)
T1 construct: also called MERS-CoV S2P

[2] = target: T2, RaTG13 prefusion-stabilized spike (S2P) (Bat coronavirus RaTG13 (GenBank …, UniProt A0ABF7PLN6, stabilised))
T2 construct: also called RaTG13 S2P

[3] = target: T3, WIV1 prefusion-stabilized spike (S2P) (Bat SARS-like coronavirus WIV1 …, UniProt U5WI05, stabilised)
T3 construct: also called WIV1 S2P

[4] = target: T4, SHC014 prefusion-stabilized spike (S2P) (Bat SARS-like coronavirus RsSHC014 …, UniProt U5WLK5, stabilised)
T4 construct: also called SHC014 S2P

[5] = target: T5, SARS-CoV prefusion-stabilized spike (S2P) (SARS-CoV Urbani (AAP13441.1), UniProt P59594, stabilised)
T5 construct: also called SARS-CoV S2P

Measured: binding result

B1: antibody WS6 (IgG) (antibody, V domains shown)
VH: EVQFQQSGTVLARPGASVKMSCKASGYTFTNYWIHWVKQRPGQGLEYIGGTYPGNGDTTYNQKFKGKAKVTAVTPTSTAYMDLSSLTNEDSAVYYCTRTGSYFDYWGQGTTLTVSS
VL: QIVLTQSPAIMSASPGEKVTISCSATSSVSYIYWYQQRPGSSPKPWIYRTSNLASGVPVRFSGSGSGTSYSLTISNMEAEDAATYYCQQYQSYPPTFGAGTKLELK
notes: also called mAb WS6
binds: all assays above
